# According to the Immune Epitope Database (IEDB):
# Experiments:
# Test in all cases: IEDB peptide-MHC binding, purified MHC/competitive/radioactivity; filed as Kd, often an IC50 or EC50 that approximates it; ≥ and ≤ were set here for values at or beyond the usual limits of such assays
# HLA-A*31:01 = target: HLA-A*31:01
# HLA-A*33:01 = target: HLA-A*33:01
# HLA-A*03:01 = target: HLA-A*03:01
# HLA-A*11:01 = target: HLA-A*11:01
# HLA-A*68:01 = target: HLA-A*68:01
# [1] = source organism: Dengue virus 3 Martinique/1243/1999
# [2] = source organism: SARS coronavirus Tor2
# [3] = source organism: Vaccinia virus WR
# [4] = source organism: Dengue virus 1 Brazil/97-11/1997
# [5] = source organism: Dengue virus 4 Philippines/H241/1956
# [6] = source organism: Dengue virus 2 Jamaica/1409/1983
# [7] = source organism: Dengue virus 1 Singapore/S275/1990
# [8] = source organism: Dengue virus 4 Dominica/814669/1981
# [9] = source organism: Murray valley encephalitis virus (strain MVE-1-51)
# [10] = source organism: Mammarenavirus guanaritoense
sequence,measurement,setting,value
AIWYMWLGAR,Kd,HLA-A*31:01; [1],42.3 nM
same,Kd,HLA-A*33:01; [1],57.3 nM
ALAFHLTSR,Kd,HLA-A*03:01; [1],34.9 nM
AQPLPQRQK,Kd,HLA-A*03:01; [2],≥ 23600 nM
same,Kd,HLA-A*11:01; [2],879 nM
same,Kd,HLA-A*31:01; [2],≥ 53200 nM
same,Kd,HLA-A*33:01; [2],≥ 77700 nM
same,Kd,HLA-A*68:01; [2],3030 nM
ASGNLLLDK,Kd,HLA-A*03:01; [2],694 nM
same,Kd,HLA-A*11:01; [2],29.8 nM
same,Kd,HLA-A*31:01; [2],13500 nM
same,Kd,HLA-A*33:01; [2],≥ 77700 nM
same,Kd,HLA-A*68:01; [2],≥ 38100 nM
ATNNVFRLK,Kd,HLA-A*31:01; [2],2.57 nM
same,Kd,HLA-A*33:01; [2],6410 nM
same,Kd,HLA-A*68:01; [2],11.6 nM
AVHECFVKR,Kd,HLA-A*03:01; [2],3320 nM
same,Kd,HLA-A*11:01; [2],440 nM
same,Kd,HLA-A*31:01; [2],39 nM
same,Kd,HLA-A*33:01; [2],1270 nM
same,Kd,HLA-A*68:01; [2],79.6 nM
AVRYYDGNIY,Kd,HLA-A*03:01; [3],2500 nM
same,Kd,HLA-A*11:01; [3],272 nM
same,Kd,HLA-A*31:01; [3],≥ 70000 nM
same,Kd,HLA-A*33:01; [3],≥ 70000 nM
same,Kd,HLA-A*68:01; [3],3040 nM
AVVADLSAR,Kd,HLA-A*03:01; [3],141 nM
same,Kd,HLA-A*11:01; [3],51.8 nM
same,Kd,HLA-A*31:01; [3],26.6 nM
same,Kd,HLA-A*33:01; [3],712 nM
same,Kd,HLA-A*68:01; [3],6.45 nM
CAGVIEYAK,Kd,HLA-A*03:01; [3],988 nM
same,Kd,HLA-A*11:01; [3],192 nM
same,Kd,HLA-A*31:01; [3],2220 nM
same,Kd,HLA-A*33:01; [3],1190 nM
same,Kd,HLA-A*68:01; [3],51.1 nM
DFRNRYEDY,Kd,HLA-A*03:01; [3],2770 nM
same,Kd,HLA-A*11:01; [3],7930 nM
same,Kd,HLA-A*31:01; [3],≥ 77900 nM
same,Kd,HLA-A*33:01; [3],96.4 nM
same,Kd,HLA-A*68:01; [3],3700 nM
DLVKSSFVK,Kd,HLA-A*03:01; [3],1790 nM
same,Kd,HLA-A*11:01; [3],127 nM
same,Kd,HLA-A*31:01; [3],94.2 nM
same,Kd,HLA-A*33:01; [3],905 nM
same,Kd,HLA-A*68:01; [3],77 nM
DLVKSYSLIR,Kd,HLA-A*03:01; [3],≥ 10000 nM
same,Kd,HLA-A*11:01; [3],6720 nM
same,Kd,HLA-A*31:01; [3],173 nM
same,Kd,HLA-A*33:01; [3],579 nM
same,Kd,HLA-A*68:01; [3],1630 nM
DTRTPRAKR,Kd,HLA-A*33:01; [4],29.8 nM
EATARGARR,Kd,HLA-A*33:01; [4],36.7 nM
same,Kd,HLA-A*68:01; [4],12.5 nM
EGAWKHAQR,Kd,HLA-A*68:01; [5],115 nM
EILKINSVK,Kd,HLA-A*03:01; [3],713 nM
same,Kd,HLA-A*11:01; [3],1540 nM
same,Kd,HLA-A*31:01; [3],2080 nM
same,Kd,HLA-A*33:01; [3],549 nM
same,Kd,HLA-A*68:01; [3],2.64 nM
EMGANFKAER,Kd,HLA-A*33:01; [6],15.5 nM
ETKITFALKK,Kd,HLA-A*03:01; [3],1230 nM
same,Kd,HLA-A*11:01; [3],93.1 nM
same,Kd,HLA-A*31:01; [3],8270 nM
same,Kd,HLA-A*33:01; [3],3200 nM
same,Kd,HLA-A*68:01; [3],74.8 nM
FINFFNLLAK,Kd,HLA-A*03:01; [3],8.96 nM
same,Kd,HLA-A*11:01; [3],0.273 nM
same,Kd,HLA-A*31:01; [3],1820 nM
same,Kd,HLA-A*33:01; [3],427 nM
same,Kd,HLA-A*68:01; [3],6.53 nM
FLYLYALIY,Kd,HLA-A*03:01; [2],6630 nM
same,Kd,HLA-A*11:01; [2],16300 nM
same,Kd,HLA-A*31:01; [2],16900 nM
same,Kd,HLA-A*33:01; [2],17900 nM
same,Kd,HLA-A*68:01; [2],≥ 44400 nM
FSKNILKYY,Kd,HLA-A*03:01; [3],≥ 21200 nM
same,Kd,HLA-A*11:01; [3],≥ 28900 nM
same,Kd,HLA-A*31:01; [3],16300 nM
same,Kd,HLA-A*33:01; [3],≥ 77700 nM
same,Kd,HLA-A*68:01; [3],5490 nM
FSKSTSPTR,Kd,HLA-A*03:01; [3],≥ 42200 nM
same,Kd,HLA-A*11:01; [3],12300 nM
same,Kd,HLA-A*31:01; [3],20.6 nM
same,Kd,HLA-A*33:01; [3],387 nM
same,Kd,HLA-A*68:01; [3],9.78 nM
FSNTILLSDK,Kd,HLA-A*03:01; [3],25.5 nM
same,Kd,HLA-A*11:01; [3],1.96 nM
same,Kd,HLA-A*31:01; [3],1260 nM
same,Kd,HLA-A*33:01; [3],≥ 62600 nM
same,Kd,HLA-A*68:01; [3],100 nM
FVKKFGLCNY,Kd,HLA-A*03:01; [3],≥ 22800 nM
same,Kd,HLA-A*11:01; [3],15100 nM
same,Kd,HLA-A*31:01; [3],12200 nM
same,Kd,HLA-A*33:01; [3],≥ 45100 nM
same,Kd,HLA-A*68:01; [3],≥ 37100 nM
GLAMGIMILK,Kd,HLA-A*03:01; [7],20.7 nM
same,Kd,HLA-A*11:01; [7],69.8 nM
GLSSRATWAK,Kd,HLA-A*03:01; [5],35.2 nM
same,Kd,HLA-A*11:01; [5],164 nM
GSQLAKRFSR,Kd,HLA-A*31:01; source organism: Dengue virus 3 Singapore/8120/1995,54.4 nM
GVFTTNIWLK,Kd,HLA-A*03:01; [6],29.3 nM
same,Kd,HLA-A*11:01; [6],40.7 nM
same,Kd,HLA-A*68:01; [6],1.45 nM
IGKMFESTYR,Kd,HLA-A*33:01; [8],176 nM
ILARWGSFKK,Kd,HLA-A*03:01; [7],9.69 nM
KAKIFTPEAR,Kd,HLA-A*31:01; [8],2.85 nM
KVTEVRGYTK,Kd,HLA-A*11:01; [1],201 nM
LISGKGIGK,Kd,HLA-A*03:01; [1],722 nM
LMCHATFTMR,Kd,HLA-A*31:01; [6],7.31 nM
same,Kd,HLA-A*33:01; [6],89 nM
MANEMGFLEK,Kd,HLA-A*11:01; [6],519 nM
MILLTMKNK,Kd,HLA-A*03:01; [1],49.7 nM
same,Kd,HLA-A*11:01; [1],1200 nM
MLVAPSYGMR,Kd,HLA-A*68:01; [5],7.59 nM
MPSMKRFRR,Kd,HLA-A*33:01; [6],6.72 nM
MSAAVKDER,Kd,HLA-A*31:01; [1],32.4 nM
same,Kd,HLA-A*68:01; [1],74.3 nM
MVTFKVPHAK,Kd,HLA-A*03:01; [5],80.3 nM
same,Kd,HLA-A*11:01; [5],251 nM
same,Kd,HLA-A*68:01; [5],133 nM
NMISRMLINR,Kd,HLA-A*31:01; [6],18 nM
same,Kd,HLA-A*33:01; [6],7.06 nM
same,Kd,HLA-A*68:01; [6],137 nM
RWLWGFLSR,Kd,HLA-A*31:01; [7],1.45 nM
SLRTTTVSGK,Kd,HLA-A*03:01; [1],5.78 nM
SSMINGVVK,Kd,HLA-A*11:01; [1],12.9 nM
TIGTTHFQR,Kd,HLA-A*31:01; [6],14.3 nM
same,Kd,HLA-A*68:01; [6],18.4 nM
TLFVEECLR,Kd,HLA-A*33:01; [5],86.3 nM
same,Kd,HLA-A*68:01; [5],30.1 nM
TTAKEVALLR,Kd,HLA-A*68:01; [5],73.3 nM
VASAGISYK,Kd,HLA-A*03:01; [5],28.4 nM
same,Kd,HLA-A*11:01; [5],37.4 nM
VQTKPGIFK,Kd,HLA-A*03:01; [9],274 nM
same,Kd,HLA-A*11:01; [9],435 nM
VTEFRRTAIH,Kd,HLA-A*03:01; [10],≥ 33100 nM
same,Kd,HLA-A*31:01; [10],10700 nM
same,Kd,HLA-A*33:01; [10],5850 nM
same,Kd,HLA-A*68:01; [10],15300 nM
WTLMYFHRR,Kd,HLA-A*31:01; [6],1.49 nM
same,Kd,HLA-A*33:01; [6],6.56 nM
